Assay results reported in patent publication US20240360242A1 (KISOJI BIOTECHNOLOGY, published 2024).

Assays:
[1] = molecular target: T1, TROP2 delta 27-56 on HEK cells (human, UniProt P09758 1-323); assay: flow cytometry, 100 nM antibody, transiently transfected HEK cells, APC anti-human Fc
T1 construct: Human TROP2 with residues 27-56 deleted, transiently transfected into HEK cells; also called TROP2 with 27-56 regions truncated
T1 chain: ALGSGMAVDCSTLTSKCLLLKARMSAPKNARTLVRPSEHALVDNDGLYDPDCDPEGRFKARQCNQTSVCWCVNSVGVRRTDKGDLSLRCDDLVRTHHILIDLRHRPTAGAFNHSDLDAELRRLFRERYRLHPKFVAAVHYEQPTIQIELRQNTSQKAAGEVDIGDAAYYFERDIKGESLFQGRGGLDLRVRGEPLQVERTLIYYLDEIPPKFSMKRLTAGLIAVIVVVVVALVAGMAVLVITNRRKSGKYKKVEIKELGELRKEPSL
Protocol: (§1) To determine the effect of TROP2 truncations on the binding ability of anti-TROP2 sdAbs, the HEK parental cells were transiently transfected with human TROP2 mutants by lipofectamine. 24 hours after transfection, cells were collected and stained with anti-TROP2 antibodies (FIG. 13A and FIG. 13B). In brief, 1×10⁵ cells were incubated with an Fc receptor blocking antibody (1/100 dilution) for 10 minutes at room temperature. Anti-TROP2 antibodies were diluted in FACS staining buffer to 100 nM and added and incubated with cells for 30 minutes on ice. After washing three times with FACS staining buffer, APC-conjugated secondary antibodies recognizing the human Fc region (Biolegend, Cat #410712) were mixed with cells. After staining for 30 minutes, cells were washed three times, followed by resuspension into 100 μL of 7-Amino-Actinomycin D (7-AAD) solution (BD Biosciences, Cat #559925).

[2] = molecular target: T2, HEK-TROP2 Δ27-44; assay: as above
T2 construct: also called TROP2 delta 27-44
T2 membrane protein on transfected HEK cells: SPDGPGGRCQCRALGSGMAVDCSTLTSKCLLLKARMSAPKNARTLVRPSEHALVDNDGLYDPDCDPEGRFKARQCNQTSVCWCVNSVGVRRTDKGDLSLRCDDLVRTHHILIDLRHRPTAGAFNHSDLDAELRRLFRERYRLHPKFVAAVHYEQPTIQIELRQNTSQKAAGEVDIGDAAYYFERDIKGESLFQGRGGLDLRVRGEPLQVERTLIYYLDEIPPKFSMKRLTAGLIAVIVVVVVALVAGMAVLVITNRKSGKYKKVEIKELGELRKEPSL
Protocol: as §1

[3] = molecular target: T3, HEK-TROP2 Δ27-36; assay: as above
T3 construct: also called TROP2 delta 27-36
T3 membrane protein on transfected HEK cells: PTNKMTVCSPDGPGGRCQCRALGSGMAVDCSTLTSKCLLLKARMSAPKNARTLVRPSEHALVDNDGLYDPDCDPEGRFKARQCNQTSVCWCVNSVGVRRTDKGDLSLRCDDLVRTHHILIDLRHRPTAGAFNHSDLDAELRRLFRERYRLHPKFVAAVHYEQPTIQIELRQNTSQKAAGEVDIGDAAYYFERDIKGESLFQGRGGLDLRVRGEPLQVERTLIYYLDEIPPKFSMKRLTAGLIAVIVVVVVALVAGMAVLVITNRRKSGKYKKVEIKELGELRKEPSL
Protocol: as §1

[4] = molecular target: T4, recombinant human TROP2 extracellular domain (aa 1-274) comprising His tag (human, UniProt P09758 27-274); assay: competitive ELISA on coated recombinant human TROP2, competitor 1428.6 pM His-tagged KD006, anti-His-HRP secondary Ab
T4 construct: Used here for all assays on recombinant human TROP2 (ELISA, immunoblot, SPR, crystal), although only some of them name the catalogue number; also called human recombinant TROP2; recombinant human TROP2 protein; not shown: His tag
T4 sequence: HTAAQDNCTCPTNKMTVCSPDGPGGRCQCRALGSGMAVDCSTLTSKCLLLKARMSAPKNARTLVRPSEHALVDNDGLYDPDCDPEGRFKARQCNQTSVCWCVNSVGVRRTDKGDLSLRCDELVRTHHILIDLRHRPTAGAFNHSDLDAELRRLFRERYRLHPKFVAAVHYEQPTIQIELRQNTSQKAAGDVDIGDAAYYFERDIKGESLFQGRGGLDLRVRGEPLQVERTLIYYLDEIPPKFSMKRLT
Protocol: The epitope characterization was assessed by competitive ELISA (FIG. 8 and FIG. 9). Microplates were coated with human recombinant TROP2 at 4° C. overnight. After washing, plates were blocked with blocking buffer (PBS+2% BSA), for 1 hour at room temperature. Meanwhile, the dilution for anti-TROP2 VHH sdAbs was prepared with blocking buffer making two different dilutions depending on the tag. For sdAbs with His tag, the antibody was diluted to 28571.4 pM. For sdAbs without tag, antibodies were serially diluted from 2857142.9 pM to 0.29 pM (8 dilutions, 10×). […] After washing two times, the mixed antibody contents were added into the wells and the plates were incubated for 2 hours at room temperature. The HRP-conjugated anti-6× His was diluted to 1:5000 and added to the wells after washing three times. Any unbound conjugate was removed by washing after 1 hour incubation at room temperature, and the colorimetric reaction was performed by adding the same volume of Supersignal ELISA Pico Luminol/Enhancer and SuperSignal ELISA Pico Stable Peroxide Solution and detected on SpectraMax i3x Microplate Reader. Positive and negative controls were included in each plate.

[5] = molecular target: T5, recombinant human EpCAM (human, UniProt P16422 24-265); assay: ELISA
T5 construct: also called rhEpCAM
T5 sequence (looked up): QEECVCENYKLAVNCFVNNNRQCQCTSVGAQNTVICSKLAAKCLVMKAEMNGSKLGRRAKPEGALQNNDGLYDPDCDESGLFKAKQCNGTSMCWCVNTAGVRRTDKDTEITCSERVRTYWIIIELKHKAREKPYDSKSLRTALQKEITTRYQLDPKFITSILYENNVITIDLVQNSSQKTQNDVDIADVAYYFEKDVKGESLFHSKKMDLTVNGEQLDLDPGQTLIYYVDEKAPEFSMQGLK

[6] = molecular target: T6, recombinant human IGFBP-1 (human, UniProt P08833 26-259); assay: ELISA
T6 construct: also called rhIGFB-1
T6 sequence (looked up): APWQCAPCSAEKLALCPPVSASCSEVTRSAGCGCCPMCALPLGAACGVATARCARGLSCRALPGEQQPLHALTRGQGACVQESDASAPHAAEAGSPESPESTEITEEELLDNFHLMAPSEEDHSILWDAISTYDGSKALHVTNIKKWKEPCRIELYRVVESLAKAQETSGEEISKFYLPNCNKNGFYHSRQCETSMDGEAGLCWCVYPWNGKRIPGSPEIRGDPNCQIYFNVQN

binding result [1]: binds
binding result [2]: binds
binding result [3]: binds
IC50 (read off the curve) [4]: ~4 nM
binding result [5]: no binding
binding result [6]: no binding
B1: KD006 (antibody, human IgG1, V domains shown)
VH: QVQLQESGGGLVQAGNSLRLSCVASVRTFSTKAMGWFRQAPGKEREFTAAISESGSTYYADSVKDRFTISRDNVKNTVYLQMNSLKPEDTAVYYCGVKWYSGSFDDTRSYDYWGQGTQVTVSS
notes: also called anti-TROP2 sdAb KD006
